# Results: paper PMC7531512
# Target: biotinylated human neonatal Fc receptor (FcRn) (human) (UniProt P55899)
# Assay: BLI
row,Substance,Kd
1,"AlbuCORE_1 scaffold (split human serum albumin, split site 339-340) (complex)",190 nM
2,"AlbuCORE_2 scaffold (split human serum albumin, split site 300-301) (complex)",580 nM
3,"AlbuCORE_3 scaffold (split human serum albumin, split site 364-365) (complex)",760 nM
4,"AlbuCORE_4 scaffold (split human serum albumin, split site 441-442) (complex)",980 nM
5,"AlbuCORE_6 scaffold (split human serum albumin, deletion of residue 84) (complex)",1600 nM
6,"AlbuCORE_7 scaffold (split human serum albumin, split site 171-172) (complex)",1650 nM
7,"AlbuCORE_9 scaffold (split human serum albumin, split site 281-282) (complex)",1250 nM
